Experiments:
Test in all cases: cell-based or functional assay
Txk(h) (human) = target: T1, Txk(h) (human) (UniProt P42681)
T1 sequence (looked up): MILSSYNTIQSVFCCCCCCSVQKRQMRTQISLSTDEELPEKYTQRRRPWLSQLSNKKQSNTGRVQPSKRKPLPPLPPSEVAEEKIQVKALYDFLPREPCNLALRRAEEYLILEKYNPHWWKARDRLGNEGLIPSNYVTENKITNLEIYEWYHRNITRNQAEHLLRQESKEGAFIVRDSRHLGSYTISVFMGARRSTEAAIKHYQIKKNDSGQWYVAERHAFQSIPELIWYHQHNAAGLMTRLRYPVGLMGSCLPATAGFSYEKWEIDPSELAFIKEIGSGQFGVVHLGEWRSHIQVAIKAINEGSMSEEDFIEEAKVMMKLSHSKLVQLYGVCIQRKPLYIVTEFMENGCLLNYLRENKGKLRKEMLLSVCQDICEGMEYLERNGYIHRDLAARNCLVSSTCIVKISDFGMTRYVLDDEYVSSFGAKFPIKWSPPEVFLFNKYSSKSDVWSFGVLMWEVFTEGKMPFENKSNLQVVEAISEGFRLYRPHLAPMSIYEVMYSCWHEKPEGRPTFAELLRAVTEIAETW

ZAP-70(h) (human) = ZAP-70(h) (human) (UniProt P43403)
AMPKα1(h) (human) = AMPKα1(h) (human) (UniProt Q13131)
Sequence of AMPKα1(h) (human) (Q13131 whole entry): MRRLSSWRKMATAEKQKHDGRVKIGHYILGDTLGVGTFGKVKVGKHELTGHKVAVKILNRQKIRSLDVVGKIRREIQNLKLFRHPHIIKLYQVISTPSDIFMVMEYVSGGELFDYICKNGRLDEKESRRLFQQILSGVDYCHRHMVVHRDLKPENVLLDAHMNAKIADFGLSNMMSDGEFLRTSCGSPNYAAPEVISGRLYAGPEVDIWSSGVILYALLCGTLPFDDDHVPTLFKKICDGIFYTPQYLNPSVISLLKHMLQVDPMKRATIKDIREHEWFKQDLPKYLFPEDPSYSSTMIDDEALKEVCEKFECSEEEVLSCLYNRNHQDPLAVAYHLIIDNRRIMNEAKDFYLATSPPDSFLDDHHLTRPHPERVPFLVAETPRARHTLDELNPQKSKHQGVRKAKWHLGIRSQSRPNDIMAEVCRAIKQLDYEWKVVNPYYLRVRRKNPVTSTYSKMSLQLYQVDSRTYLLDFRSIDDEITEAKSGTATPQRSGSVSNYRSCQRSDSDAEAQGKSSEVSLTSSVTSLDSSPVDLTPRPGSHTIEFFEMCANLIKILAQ

PKGδ(h) (human) = target: PKGδ(h) (human)
VRK2(h) (human) = VRK2(h) (human) (UniProt Q86Y07)
Sequence of VRK2(h) (human) (Q86Y07 whole entry): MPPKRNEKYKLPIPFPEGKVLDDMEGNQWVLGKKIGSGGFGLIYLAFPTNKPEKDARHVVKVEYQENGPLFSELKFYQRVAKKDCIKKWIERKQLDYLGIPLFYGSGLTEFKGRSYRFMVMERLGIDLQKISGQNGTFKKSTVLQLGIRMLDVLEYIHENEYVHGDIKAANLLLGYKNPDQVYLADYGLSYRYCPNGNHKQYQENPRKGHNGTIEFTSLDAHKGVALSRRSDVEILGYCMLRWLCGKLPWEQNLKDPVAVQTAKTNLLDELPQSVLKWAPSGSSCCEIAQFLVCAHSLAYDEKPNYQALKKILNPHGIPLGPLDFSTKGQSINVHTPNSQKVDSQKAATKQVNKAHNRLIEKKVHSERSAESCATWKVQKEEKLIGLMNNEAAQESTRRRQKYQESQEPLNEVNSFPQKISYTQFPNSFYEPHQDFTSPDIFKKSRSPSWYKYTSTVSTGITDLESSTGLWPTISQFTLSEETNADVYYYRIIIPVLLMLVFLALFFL

DRAK1(h) (human) = DRAK1(h) (human) (UniProt Q9UEE5)
Sequence of DRAK1(h) (human) (Q9UEE5 whole entry): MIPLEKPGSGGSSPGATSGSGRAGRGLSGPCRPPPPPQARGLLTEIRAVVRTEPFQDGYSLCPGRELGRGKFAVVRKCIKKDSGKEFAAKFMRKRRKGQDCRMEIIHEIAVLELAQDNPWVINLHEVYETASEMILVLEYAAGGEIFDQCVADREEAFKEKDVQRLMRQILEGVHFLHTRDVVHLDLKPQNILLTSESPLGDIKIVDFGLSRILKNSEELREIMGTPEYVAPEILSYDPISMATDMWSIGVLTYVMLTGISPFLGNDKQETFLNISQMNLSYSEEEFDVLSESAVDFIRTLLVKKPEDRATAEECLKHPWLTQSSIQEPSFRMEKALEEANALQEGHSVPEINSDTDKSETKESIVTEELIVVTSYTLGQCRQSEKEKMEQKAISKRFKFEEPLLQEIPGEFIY

MKK6(h) (human) = MKK6(h) (human) (UniProt P52564)
Sequence of MKK6(h) (human) (P52564 whole entry): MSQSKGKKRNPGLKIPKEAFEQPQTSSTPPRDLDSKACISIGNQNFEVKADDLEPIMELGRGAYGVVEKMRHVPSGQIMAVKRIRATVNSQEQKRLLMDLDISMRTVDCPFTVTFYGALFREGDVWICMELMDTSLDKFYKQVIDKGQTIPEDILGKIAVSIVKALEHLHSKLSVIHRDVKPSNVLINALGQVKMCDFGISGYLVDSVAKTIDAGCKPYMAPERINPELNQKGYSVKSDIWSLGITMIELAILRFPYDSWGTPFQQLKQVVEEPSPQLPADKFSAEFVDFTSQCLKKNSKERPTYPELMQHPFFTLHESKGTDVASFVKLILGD

ALK4(h) (human) = target: T2, ALK4(h) (human) (UniProt P36896)
T2 sequence (looked up): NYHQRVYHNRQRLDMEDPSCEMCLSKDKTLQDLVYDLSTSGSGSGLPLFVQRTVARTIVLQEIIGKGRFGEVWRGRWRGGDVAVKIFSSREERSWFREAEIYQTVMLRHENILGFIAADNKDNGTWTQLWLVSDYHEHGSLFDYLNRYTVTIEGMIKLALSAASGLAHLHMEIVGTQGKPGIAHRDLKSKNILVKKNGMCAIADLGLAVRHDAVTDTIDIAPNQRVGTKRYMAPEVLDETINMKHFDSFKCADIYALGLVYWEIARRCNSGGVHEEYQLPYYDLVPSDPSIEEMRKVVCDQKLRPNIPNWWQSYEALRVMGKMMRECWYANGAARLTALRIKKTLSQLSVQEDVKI

JAK3(h) (human) = JAK3(h) (human) (UniProt P52333)
Sequence of JAK3(h) (human) (P52333 781-1124 limits assumed): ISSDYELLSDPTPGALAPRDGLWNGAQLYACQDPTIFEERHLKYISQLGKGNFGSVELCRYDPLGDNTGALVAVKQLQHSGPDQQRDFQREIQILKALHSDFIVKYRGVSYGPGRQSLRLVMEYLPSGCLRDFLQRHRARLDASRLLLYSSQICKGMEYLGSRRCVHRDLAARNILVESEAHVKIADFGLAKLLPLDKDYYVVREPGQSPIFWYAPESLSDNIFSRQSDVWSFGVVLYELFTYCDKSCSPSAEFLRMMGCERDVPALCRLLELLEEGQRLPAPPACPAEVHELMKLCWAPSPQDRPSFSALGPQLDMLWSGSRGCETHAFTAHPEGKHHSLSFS

EphB1(h) (human) = EphB1(h) (human) (UniProt P54762)
CHK2(I157T)(h) (human) = CHK2(I157T)(h) (human) (UniProt O96017)
Sequence of CHK2(I157T)(h) (human) (O96017 5-543 I157T limits assumed): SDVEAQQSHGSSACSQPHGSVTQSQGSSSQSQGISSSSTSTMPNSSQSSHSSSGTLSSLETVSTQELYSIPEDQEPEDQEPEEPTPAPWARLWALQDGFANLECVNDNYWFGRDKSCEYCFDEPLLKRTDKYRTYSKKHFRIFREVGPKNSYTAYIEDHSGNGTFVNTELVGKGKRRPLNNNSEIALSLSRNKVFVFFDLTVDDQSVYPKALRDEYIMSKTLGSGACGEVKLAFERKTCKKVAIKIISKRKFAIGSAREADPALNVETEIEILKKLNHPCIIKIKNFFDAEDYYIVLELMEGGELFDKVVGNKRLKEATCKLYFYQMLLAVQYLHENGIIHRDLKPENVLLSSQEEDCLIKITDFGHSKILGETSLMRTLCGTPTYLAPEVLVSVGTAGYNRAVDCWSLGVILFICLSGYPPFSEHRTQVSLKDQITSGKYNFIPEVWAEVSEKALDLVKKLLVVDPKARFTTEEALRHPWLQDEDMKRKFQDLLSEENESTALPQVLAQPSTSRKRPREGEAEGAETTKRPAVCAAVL

HIPK2(h) (human) = HIPK2(h) (human) (UniProt Q9H2X6)
cKit(V560G)(h) (human) = cKit(V560G)(h) (human) (UniProt P10721)
Bmx(h) (human) = target: T3, Bmx(h) (human) (UniProt P51813)
T3 sequence (looked up): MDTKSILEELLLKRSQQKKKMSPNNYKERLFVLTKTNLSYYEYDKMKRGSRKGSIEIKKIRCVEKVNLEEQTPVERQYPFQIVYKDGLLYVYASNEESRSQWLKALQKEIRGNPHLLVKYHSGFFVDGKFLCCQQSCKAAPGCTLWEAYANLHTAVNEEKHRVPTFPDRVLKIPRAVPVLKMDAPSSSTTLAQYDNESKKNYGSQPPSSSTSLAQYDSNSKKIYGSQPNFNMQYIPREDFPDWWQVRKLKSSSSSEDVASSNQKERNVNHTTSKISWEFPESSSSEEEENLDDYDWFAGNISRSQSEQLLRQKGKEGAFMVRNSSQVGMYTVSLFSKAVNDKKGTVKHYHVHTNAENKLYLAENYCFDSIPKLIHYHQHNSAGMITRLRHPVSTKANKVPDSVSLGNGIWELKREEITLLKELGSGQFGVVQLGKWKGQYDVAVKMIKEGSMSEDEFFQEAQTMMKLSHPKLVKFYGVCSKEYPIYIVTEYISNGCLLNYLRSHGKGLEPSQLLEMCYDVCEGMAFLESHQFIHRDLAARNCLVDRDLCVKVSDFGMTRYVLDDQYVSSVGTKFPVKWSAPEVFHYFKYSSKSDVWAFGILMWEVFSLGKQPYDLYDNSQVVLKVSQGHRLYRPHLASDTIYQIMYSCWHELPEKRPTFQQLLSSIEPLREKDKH

MRCKα(h) (human) = MRCKα(h) (human) (UniProt Q5VT25)
Sequence of MRCKα(h) (human) (Q5VT25 1-473 limits assumed): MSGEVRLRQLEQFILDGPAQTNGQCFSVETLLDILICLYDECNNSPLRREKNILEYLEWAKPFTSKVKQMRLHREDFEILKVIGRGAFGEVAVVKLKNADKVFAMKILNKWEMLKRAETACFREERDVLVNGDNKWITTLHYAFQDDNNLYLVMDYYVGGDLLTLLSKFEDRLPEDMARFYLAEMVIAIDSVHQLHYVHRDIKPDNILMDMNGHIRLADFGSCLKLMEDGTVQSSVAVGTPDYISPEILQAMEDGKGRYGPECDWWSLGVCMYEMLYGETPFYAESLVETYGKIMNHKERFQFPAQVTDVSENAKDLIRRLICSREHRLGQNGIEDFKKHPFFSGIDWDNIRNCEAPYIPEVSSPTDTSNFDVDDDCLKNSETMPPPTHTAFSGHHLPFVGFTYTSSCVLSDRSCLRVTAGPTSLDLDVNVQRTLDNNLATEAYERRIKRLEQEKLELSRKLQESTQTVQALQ

SAPK3(h) (human) = target: T4, SAPK3(h) (human) (UniProt P53778)
T4 sequence (looked up): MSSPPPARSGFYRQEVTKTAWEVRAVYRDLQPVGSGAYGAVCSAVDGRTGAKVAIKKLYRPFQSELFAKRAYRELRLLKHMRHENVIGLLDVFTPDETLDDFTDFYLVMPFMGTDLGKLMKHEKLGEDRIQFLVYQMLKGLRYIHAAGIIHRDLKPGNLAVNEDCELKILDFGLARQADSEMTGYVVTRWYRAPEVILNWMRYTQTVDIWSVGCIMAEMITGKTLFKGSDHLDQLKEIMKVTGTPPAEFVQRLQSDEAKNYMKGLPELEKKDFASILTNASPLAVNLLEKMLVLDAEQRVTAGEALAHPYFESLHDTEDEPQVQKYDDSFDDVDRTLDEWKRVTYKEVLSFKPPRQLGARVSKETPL

CLK3(h) (human) = CLK3(h) (human) (UniProt P49761)
Sequence of CLK3(h) (human) (P49761 whole entry): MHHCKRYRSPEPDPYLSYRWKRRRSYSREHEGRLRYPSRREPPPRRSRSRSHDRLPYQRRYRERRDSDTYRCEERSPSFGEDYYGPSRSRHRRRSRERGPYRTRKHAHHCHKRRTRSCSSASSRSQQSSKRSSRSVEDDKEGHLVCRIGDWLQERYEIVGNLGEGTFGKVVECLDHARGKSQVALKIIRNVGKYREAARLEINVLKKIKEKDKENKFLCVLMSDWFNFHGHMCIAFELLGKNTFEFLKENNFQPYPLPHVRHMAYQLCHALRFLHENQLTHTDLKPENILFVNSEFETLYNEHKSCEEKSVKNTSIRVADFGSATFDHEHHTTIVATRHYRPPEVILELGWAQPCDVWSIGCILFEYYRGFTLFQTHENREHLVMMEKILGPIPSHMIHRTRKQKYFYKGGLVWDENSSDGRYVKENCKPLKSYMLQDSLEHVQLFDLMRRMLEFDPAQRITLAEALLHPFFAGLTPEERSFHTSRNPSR

ALK(h) (human) = ALK(h) (human) (UniProt Q9UM73)
Sequence of ALK(h) (human) (Q9UM73 1058-1620 limits assumed): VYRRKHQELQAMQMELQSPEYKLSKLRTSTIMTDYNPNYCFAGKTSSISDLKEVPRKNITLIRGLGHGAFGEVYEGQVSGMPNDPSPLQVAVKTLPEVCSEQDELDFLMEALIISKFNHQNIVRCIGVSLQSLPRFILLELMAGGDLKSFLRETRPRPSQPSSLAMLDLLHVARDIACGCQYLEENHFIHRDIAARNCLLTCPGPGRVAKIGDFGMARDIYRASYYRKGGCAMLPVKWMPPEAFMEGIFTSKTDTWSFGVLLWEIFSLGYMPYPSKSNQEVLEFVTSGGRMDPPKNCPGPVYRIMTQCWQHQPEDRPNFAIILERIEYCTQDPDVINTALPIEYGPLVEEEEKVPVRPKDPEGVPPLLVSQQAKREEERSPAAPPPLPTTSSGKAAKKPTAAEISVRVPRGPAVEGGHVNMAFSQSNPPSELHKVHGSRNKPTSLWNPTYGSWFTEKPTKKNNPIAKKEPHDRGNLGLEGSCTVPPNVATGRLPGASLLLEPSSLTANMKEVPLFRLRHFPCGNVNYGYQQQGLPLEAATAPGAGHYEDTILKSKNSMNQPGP

CDK1/cyclinB(h) (human) = CDK1/cyclinB(h) (human) (UniProt P06493)
Sequence of CDK1/cyclinB(h) (human) (P06493 whole entry, chain 1 of 2): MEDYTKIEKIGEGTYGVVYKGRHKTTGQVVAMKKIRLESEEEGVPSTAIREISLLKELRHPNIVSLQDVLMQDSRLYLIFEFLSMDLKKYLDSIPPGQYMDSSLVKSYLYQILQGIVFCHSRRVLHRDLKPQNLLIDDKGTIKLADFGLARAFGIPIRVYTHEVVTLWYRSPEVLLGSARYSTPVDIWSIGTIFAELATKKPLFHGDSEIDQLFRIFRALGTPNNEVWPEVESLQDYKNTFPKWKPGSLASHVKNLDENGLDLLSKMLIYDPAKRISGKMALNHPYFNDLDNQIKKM
Sequence of CDK1/cyclinB(h) (human) (P14635 whole entry, chain 2 of 2, further chain): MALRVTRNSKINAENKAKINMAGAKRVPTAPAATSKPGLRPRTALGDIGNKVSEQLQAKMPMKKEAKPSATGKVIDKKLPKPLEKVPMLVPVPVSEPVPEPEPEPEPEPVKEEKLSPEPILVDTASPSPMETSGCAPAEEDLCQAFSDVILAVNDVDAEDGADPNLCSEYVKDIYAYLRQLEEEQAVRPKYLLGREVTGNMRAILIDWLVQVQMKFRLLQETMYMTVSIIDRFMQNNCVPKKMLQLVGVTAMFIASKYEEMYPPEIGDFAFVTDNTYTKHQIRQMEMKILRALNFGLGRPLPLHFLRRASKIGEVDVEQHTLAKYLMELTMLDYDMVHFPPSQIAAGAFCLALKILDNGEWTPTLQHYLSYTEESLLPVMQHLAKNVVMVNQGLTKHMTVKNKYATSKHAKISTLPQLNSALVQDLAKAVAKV

% activity, 100 µM (Txk(h) (human)): 10%
% activity, 100 µM (ZAP-70(h) (human)): 1%
% activity, 100 µM (AMPKα1(h) (human)): 35%
% activity, 100 µM (PKGδ(h) (human)): 61%
% activity, 100 µM (VRK2(h) (human)): 169%
% activity, 100 µM (DRAK1(h) (human)): 8%
% activity, 100 µM (MKK6(h) (human)): 18%
% activity, 100 µM (ALK4(h) (human)): 81%
% activity, 100 µM (JAK3(h) (human)): 95%
% activity, 100 µM (EphB1(h) (human)): 37%
% activity, 100 µM (CHK2(I157T)(h) (human)): 3%
% activity, 100 µM (HIPK2(h) (human)): 38%
% activity, 100 µM (cKit(V560G)(h) (human)): 198%
% activity, 100 µM (Bmx(h) (human)): 45%
% activity, 100 µM (MRCKα(h) (human)): 5%
% activity, 100 µM (SAPK3(h) (human)): 24%
% activity, 100 µM (CLK3(h) (human)): 76%
% activity, 100 µM (ALK(h) (human)): 12%
% activity, 100 µM (CDK1/cyclinB(h) (human)): 57%
Substance: MMI-0500 (peptide)

Source: patent US20140072613A1, “Compositions and Methods for Treating Cutaneous Scarring” (priority 2012, published 2014)
